From US20200223906A1 (Adimab, published 2020) come the findings set out here.

For test [1], the target named is RSV F protein of subtype A (strain A2) on recombinant mKate-RSV (respiratory syncytial virus subtype A …, UniProt P03420 26-574). Description: cell-based or functional assay.
Test [2] has as its target RSV F protein of subtype B (18537) on recombinant mKate-RSV (respiratory syncytial virus subtype B …, UniProt P13843 26-574). Description: cell-based or functional assay.
Test [3] has as its target RSV F protein of subtype A (strain A2) on recombinant mKate-RSV virus (Respiratory syncytial virus subtype A …, UniProt P03420 26-574). Put plainly: cell-based or functional assay.
Test [4] has as its target RSV F protein of subtype B (18537) on recombinant mKate-RSV virus (Respiratory syncytial virus subtype B …, UniProt P13843 26-574). Put plainly: cell-based or functional assay.
Test [5] addresses T1, RSV F subtype A, furin-cleaved ectodomain stabilized in the prefusion conformation (DS-Cav1) (Respiratory syncytial virus subtype A, UniProt P03420 26-524).
T1 construct: extracellular domain; Trimeric soluble antigen; also called Prefusion subtype A
Put plainly: BLI, IgG on AHQ sensor, 100 nM antigen. A general note: Biolayer interferometry detects binding as a change in optical thickness at a sensor tip.

The target in test [6] is T2, RSV F subtype B, furin-cleaved ectodomain stabilized in the prefusion conformation (DS-Cav1) (Respiratory syncytial virus subtype B).
T2 construct: extracellular domain; Trimeric soluble antigen; also called Prefusion subtype B
Description: BLI, IgG on AHQ sensor, 100 nM antigen.

B1: ADI-18979 (antibody, V domains shown)
VH: EVQLLESGAEVKKPGASVKISCKASGYIFTSYGVSWVRQAPGQGLKWMGWISGYNGNTYYDQKFQGRVTMTTDTSTNTAYMELRSLTSDDTAVYYCARDSFSETGTGFPDFWGQGTLVTVSS
VL: EIVLTQSPLSLPVTLGQPASISCRSSQSLEYSDGNTYLNWFQQRPGQSPRRLIYKVSNRDSGVPDRFSGSGSGTDFTLKISRVEAEDVGVYYCMQATHRPRTFGQGTKVDIK
For the molecule B1, the “Neut IC50 subtype A” value in test [1] was 0.012 µg/mL. In addition, the “Neut IC50 subtype B” value in test [2] was 0.031 µg/mL.

B2: ADI-18994 (antibody, V domains shown)
VH: QVQLVQSGAEVKKPGASVKVSCKASGYTFTNYGFSWVRQAPGQGLEWMGWILTHNGYTNYAQKFQDRVTMKTDTSTSTVYMELRSLRSVDTAVYYCARIGHVTAVAGAPPDYWGQGTLVTVSS
VL: QPVLTQPASVSGYQGQSITISCSGTSSDVGTYNLVSWYQQHPGKAPELMIYEGSKRPSGVSDRFSGSKSGNTASLTISGLQAEDEADYYCCSYVAGSTSVFGGGTKLTVL
Regarding B2, the “Neut IC50 subtype A” value in test [1] came to 0.047 µg/mL. Moreover, the “Neut IC50 subtype B” value in test [2] turned out to be 0.108 µg/mL.

B3: ADI-18991 (antibody, V domains shown)
VH: EVQLVESGPGLVKPSETLSLSCIVSGDSITSNDYYWSWIRQSPGKGLEWIGYIYHSGATFYTPSLRSRVTISTDRSKNQFSLRLSSVTAADTAVYYCASGPVGMATSNWFDPWGQGTLVTVSS
VL: QPVLTQPPSVSVAPGKTATLTCGGDIIRTNSVNWYQQKPGQAPVLIIYYDSDRPSGIPGRFSASNSGSAATLTISRVEAGDEADYYCQVWDSSTDYHVVFGGGTKLTVL
Turning to B3, the “Neut IC50 subtype A” value in test [1] was found to be 0.028 µg/mL. For the same molecule, the “Neut IC50 subtype B” value in test [2] came to 0.228 µg/mL.

B4: ADI-18985 (antibody, V domains shown)
VH: QVQLVQSGPEVKKPGASVKVSCEASGYTFTDFFVHWVRQAPGEGLVWLGWVNPLSGATKYAQNFQGRVTMTSDTSITTAYMALSSLRHDDTAVYYCTSQTSPYTPGAMGVWGQGTTVTVSS
VL: DIRVTQSPASLSAFVGDRVTITCRASPAISGYLSWYQQKAGKAPKILIYDASNLYSGAPSRFSGSRSGTDFTLTITSLQPEDFATYYCQQTYNGLIAFGPGTKVEIK
For the molecule B4, the “Neut IC50 subtype A” value in test [1] came out at 0.034 µg/mL. Further, in test [2], the “Neut IC50 subtype B” value amounted to 0.09 µg/mL.

B5: ADI-18986 (antibody, V domains shown)
VH: EVQLLESGGGVVQPGKSLRLSCAASGFTFNTYAIHWVRQAPGKGLEWVAAISYDGSNEYYSNSVKGRFTISRDNSKYTLELQMNSLRPEDTAVYYCARGASYYYVSSDLGYWGQGTLVTVSS
VL: QSVVTQPPSVSGAPGQRVTISCTGSSSNIGSGYDVHWYQQLPGTAPKVVIYGNINRPSGVPERFSGSKSGTSASLAITGLQAEDEADYYCQSYDSLSASWVFGGGTKLTVL
For B5, the “Neut IC50 subtype A” value in test [1] came to 0.464 µg/mL. Also, the “Neut IC50 subtype B” value in test [2] stood at 0.123 µg/mL.

B6: ADI-18983 (antibody, V domains shown)
VH: EVQLVESGGGVVQPGRSLRLSCAASGFTFSSFSMHWVRQAPGKGLEWVALISSDERNSYYADSVKGRFTISRDNSKNTLYLQISRLKVEDTAVYYCAREAYEEWELTMGNLDHWGQGTLVTVSS
VL: DIQLTQSPSSLSASVGDRVTITCRASQGIGNDLGWYQQKPGKAPKRLIYSTYSLQSGVPSRFSGSGSGTEFTLTISSLQPEDFATYYCLQHNRYPFTFGPGTKLEIK
Regarding B6, the “Neut IC50 subtype A” value in test [1] turned out to be 0.028 µg/mL. Besides, the “Neut IC50 subtype B” value in test [2] was 0.075 µg/mL.

B7: ADI-18978 (antibody, V domains shown)
VH: EVQLVESGGGVVQPGRSLRLSCEASGFTFSSFSMHWVRQAPGKGLEWVAVILYDGSNQYYADSVKGRFTISRDNSKNTLYLQMNTLRAEDTAMYYCAKSSSSHVNSRQDKWGQGTLVTVSS
VL: EIVLTQSPSTLSASVGDRVTITCRASQSISRWLAWYQQKPGEAPKLLIHTASTLESGVPSRFSGSGSGTEFTLTINSLQPDDLATYYCQQYYNWWTFGQGTKVEIK
Take B7: in test [1], the “Neut IC50 subtype A” value is over 10 µg/mL. For the same molecule, the “Neut IC50 subtype B” value in test [2] is over 10 µg/mL.

B8: ADI-18993 (antibody, V domains shown)
VH: EVQLVESGGGLVKPGGSLRLSCAASGFTLSSYAMNWVRQAPGKGLEWVSSISAGSSYIDYADSVKGRFTISRDNAKNSLYLQMNNLRAEDTALYYCAREVLPATAIGGAWLDPWGQGTLVTVSS
VL: QSVLTQPPSVSGAPGQTVTISCTGSSSNIGAGYDVHWYRQLPGTAPKLLIYSNNNRPSGVPDRFSGSKSDTSASLAITGLQAGDEADYYCQSYDISLSASYVFGTGTKVTVL
As for B8, in test [1], the “Neut IC50 subtype A” value amounted to 0.078 µg/mL. For the same molecule, the “Neut IC50 subtype B” value in test [2] was 0.128 µg/mL.

B9: ADI-18923 (antibody, V domains shown)
VH: EVQLLESGGGLVKPGGSLRLSCAASGFTFSSYSMNWVRQAPGKGLEWVSSISSSSSYIYYADSVKGRFTISRDNAKNSLYLQMNSLRAEDTAVYYCARDWPNSSSSPNWFDPWGQGTLVTVSS
VL: QSVLTQPPSVSGAPGQRVTISCTGSSSNIGAGYDVHWYQQLPGTAPKLLIYGNSNRPSGVPDRFSGSKSGTSASLAITGLQAEDEADYYCQSYDSSLSGFYVFGTGTKLTVL
notes: full-length IgG from yeast
By Kd is commonly meant the free concentration of one partner at which half of the binding sites on the other are occupied at equilibrium, for simple one-to-one binding. A higher Kd goes with lower affinity. For the molecule B9, the “Neut IC50 (µg/ml) subtype A” value in test [3] worked out at 0.078 µg/mL. Moreover, the “Neut IC50 (µg/ml) subtype B” value in test [4] came to 0.147 µg/mL. Further, the dissociation constant Kd was 0.517 nM in test [5] and 1.79 nM in test [6].

B10: ADI-18988 (antibody, V domains shown)
VH: EVQLVESGGGLVRPGGSLRLSCAASGFSLSSYGMSWVRQAPGKGLEWVSSITAGSSYINYADSVKGRFTISRDNAKSSLFLQMTSLRVEDTAVYFCVREAYASSSALYWFDPWGQGTLVTVSS
VL: QSVLTQPPSVSGAPGQRVTISCTGSSSNLGAGYVVHWYQQLPGTSPKLLIYGNTDRPSGVPDRFSGSKSGTSASLAISGLQAEDEADYYCQSYDSSLSGWVFGGGTKLTVL
Consider B10, for which the “Neut IC50 subtype A” value in test [1] amounted to 0.089 µg/mL. Also, the “Neut IC50 subtype B” value in test [2] worked out at 0.37 µg/mL.

B11: ADI-18996 (antibody, V domains shown)
VH: QVQLVQSGAEVKRPGASVKVSCKASEYAFTAHYLHWVRQAPDQGLEWMGWISPKSGGTNYAQKFHGRVSMTSDTSISTVYMELSSLTSDDTAVYYCARSSLVGASPNFDFWGQGTLVTVSS
VL: QSVVTQPPSVSAAPGQRVTISCSGSSSNIGNNYVSWYQQLPGSTPKVLIYDNNQRPSGIPDRFSGSKSGTSATLAISGLQTGDEAVYYCGTWDASLSAAMVFGGGTKLTVL
In the case of B11, the “Neut IC50 subtype A” value in test [1] was over 10 µg/mL. Besides, the “Neut IC50 subtype B” value in test [2] was over 10 µg/mL.

B12: ADI-18987 (antibody, V domains shown)
VH: QVQLVQSGAEVKKPGSSVKVSCKASGGTFSGHAINWVRQAPGQGLEWMGGIIHIFGTVNYAPKFQGRVTITADASTGTVYMELSSLISEDTAVYYCARDAYEVWTGSYLPPFDDWGQGTLVTVSS
VL: DIVMTQSPGTLSLSPGDRVTLSCRASQTVTSSYLAWYQQKPGQAPRLLIYGAFTRATGIPDRFSGSGSGTDFTLSISRLEPEDFAVYYCQQYGSSFLTFGGGTKVDIK
On to B12, for which the “Neut IC50 subtype A” value in test [1] was 0.015 µg/mL. The “Neut IC50 subtype B” value in test [2] came to 0.027 µg/mL.

B13: ADI-18926 (antibody, V domains shown)
VH: EVQLVESGAEVKKPGASVKVSCQTSGYTFSHFGVTWIRQAPGQGLEWLGWISAYNGNTDYADKLQGRLTMTTDTSTNTAYMELRSLRSDDTAVYYCARDPPASAAAMLDYWGQGTLVTVSS
VL: DIVMTQSPLSLAVTLGQPASISCKSSQGLEYTDGNTYLSWFQQRPGQSPRRLIYKISNRDSGVPDRFSGSGSGTDFTLRISRVEAEDVGVYYCMQGTHGRGISFGPGTKVDIK
notes: full-length IgG from yeast; also called Antibody Number 280; Ab # 280
B13: the “Neut IC50 (µg/ml) subtype A” value in test [3] was 0.023 µg/mL. Moreover, in test [4], the “Neut IC50 (µg/ml) subtype B” value was determined as 0.092 µg/mL. The Kd stood at 0.252 nM in test [5] and 0.25 nM in test [6].
